Test system: IA-stimulated PBMCs
Experiment: Counts of significant modulations over all treatments of IA-stimulated PBMCs (LPS or PHA)
Assay type: cell-based, human
Procedure: The bioactivity of our plantakines IL-37b and IL-38 was assessed by monitoring the secretion of 11 cytokines, generally regarded as inflammatory markers, from PBMCs stimulated with an IA. Freshly isolated human PBMCs were subjected to various treatments-combinations of the IAs with the plantakines at different concentrations. Two different model IAs were used, either the bacterial lipopolysaccharides (LPS) or a lectin from Phaseolus vulgaris (phytohaemagglutinin, PHA); each of the IAs was applied onto cells separately, each IA was applied at two concentrations: LPS at 150 and 300 μg/mL; PHA at 5 and 10 μg/mL. Each IA at each concentration was applied in combination with one of the two plantakines, each of them at three different concentrations: 1, 10 and 100 ng/ml of the monomeric forms present in the purified extracts. Also included were treatments comprised of either IA at their lower concentrations, in combination with both plantakines at 10 ng/ml concentration in order to assess possible synergistic effects. Cells with only IAs applied represented the reference (positive controls for each concentration), cells without any treatment represented the basal level (negative control). The levels of eleven different pro-inflammatory cytokines secreted into the medium from the PBMCs-GM-SCF, IFNγ. TNFα, IL-1α, IL-1β, IL-6, IL-8, IL-22, IL12, IL-17 and IL-10 were compared between the treatments and the controls. We applied Generalized Estimating Equation (GEE) model for the statistical data analysis. This statistical approach allows for nested observations and was used to test the effects of the plantakines IL-37b and IL-38 and their dosage in the context of IA-stimulated PBMCs inflammatory responses. […]
Non-linear logarithm transformation was performed to address non-normality of distribution of Luminex-derived numeric data. […] Separate analyses were conducted for each of the 11 monitored cytokines and each inflammatory agent/concentration combination. […]

[1] = separate applications, either IA, all concentrations

B1: plant-produced recombinant human IL-38, mature form C2-W152 with C-terminal 7xHIS tag (ligand)
chain: CSLPMARYYIIKYADQKALYTRDGQLLVGDPVADNCCAEKICILPNRGLARTKVPIFLGIQGGSRCLACVETEEGPSLQLEDVNIEELYKGGEEATRFTFFQSSSGSAFRLEAAAWPGWFLCGPAEPQQPVQLTKESEPSARTKFYFEQSWHHHHHHH
notes: range 2-152; also called rhIL-38; plantakine IL-38
For B1, which “attenuated rather than increased secretion of inflammatory cytokines, frequency ratio” value (all significant treatments) is on record?
The value was 1.7 times.

And the “number of treatments in which secretion of inflammatory cytokines was increased” value [1]?
Its value is 22 treatments.

And the “number of treatments in which secretion of inflammatory cytokines was suppressed” value [1]?
The value was 30 treatments.
